In the nanobody polyreactivity screen of Harvey et al. (2022):

test: yeast display, Sf9 membrane polyspecificity reagent, FACS + sequencing; frameworks hold sequencing errors
Method in brief: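 Polyreactivity labels are assigned by the sorting gate from which each nanobody was recovered. The gates were low and high (top ~1%), set on anti-HA fluorescence for expression and streptavidin fluorescence for reagent binding. Before sorting, galactose-induced (36–48 hours) yeast display cells were stained for 1 hour at 4 °C with 10% biotinylated, detergent-solubilized Sf9 membrane reagent.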

| Sequence | polyreactivity (PSR sort gate) |
| --- | --- |
| QVQLVESGGGLVQAGGSLRLSCAASGRIFFYNAMGWYRQAPGKERELVATINWSGGSTYYADSVKGRFTISRDYAKNTVYLQMNSLKPEDTAVYYCNALRASTTALWGGYWGQGTQVTVSS | high polyreactivity |
| QVQLVESGGGLVQAGGSLRLSCAASGRIFFYNVMGWYRQAPGKERELVASIRWSGSGTYYADSVKGRFTISRDDAKNTVYLQMNCLKPEETAVYYCAVLGRVGYGVYPVDYWGQGTQVTVSS | high polyreactivity |
| QVQLVESGGGLVQAGGSLRLSCAASGRIFFYYAMGWYRQAPGTERELVAAISKSGGRTYYADSVKGRFTISRDNAKNTVYLQMNSLKPEDTAVYYCAAYSAHDSDYWGQGTQVTVSS | high polyreactivity |
| QVQLVESGGGLVQAGGSLRLSCAASGRIFGANAMGWYRQAPGKERELVAAIDDGVSTNYADSVKGRFTISRDNAKNTVYLQMNSLKPEDTAVYYCAKRSFVGGRGRDSDYWGQGTQVTVSS | low polyreactivity |
| QVQLVESGGGLVQAGGSLRLSCAASGRIFGANAMGWYRQAPGKERELVAAISGSGGRTYYADSVKGRFTISRDNAKNTVYLQMNSLKPEDTAVYYCAAGRPTYSRYFGFEYWGQGTQVTVSS | high polyreactivity |
| QVQLVESGGGLVQAGGSLRLSCAASGRIFGAYAMGWYRQAPGKERELVAAISSGGSTNYADSVKGRFTISRDNAKNTVYLQMNSLKPEDTAVYYCAAERLYSWYYYKYNSEFYYWGQGTQVTVSS | low polyreactivity |
| QVQLVESGGGLVQAGGSLRLSCAASGRIFGAYAMGWYRQAPGKERELVAAITSRGGNTYYADSVKGRFTISRDNAKNTVYLQMNSLKPEDTAVYYCAARHDKLRQYYVGQSAFDYWGQGTQVTVSS | low polyreactivity |
| QVQLVESGGGLVQAGGSLRLSCAASGRIFGAYTMGWYRQAPGKERELVAVISSRGTDTYYADSVKGRFTISRDNAKNTVYLQMNSLKPEDTAVYYCAKRWWYTTSPRRSGDYWGQGTQVTVSS | high polyreactivity |
| QVQLVESGGGLVQAGGSLRLSCAASGRIFGDYAMGWYRKAPGKERELLAAISWSDGSTYYADSVKGRFTISRDNAKNTVYLQMNSLKPEDTAVYYCAAYGWGYRYVDVVVSDFYYWGQGTQVTVSS | low polyreactivity |
| QVQLVESGGGLVQAGGSLRLSCAASGRIFGDYAMGWYRQAPGKERELVADITWSGGSTYYADSVKGRVTISRDNAKHTVYLQMNSLKPEDTAVYYCNADVWFYYTFDYWGQGTQVTVSS | low polyreactivity |
| QVQLVESGGGLVQAGGSLRLSCAASGRIFGFNAMGWYRQATGKERELVAAISWRGGSTYYADSVKGRFTISRDNAKNTVYLQMNSLKPEDTAVYYCAAGRYLRSGFGEGYYWGQGTQVTVSS | high polyreactivity |
| QVQLVESGGGLVQAGGSLRLSCAASGRIFGFYALGWYRQAPGKEREFVASISVRGASTYADSVKGRFTISRDNAKNTVYLQMYSLKPEDTAVYYCNKAVANDDGLEYWGQGTQVTVSS | high polyreactivity |
| QVQLVESGGGLVQAGGSLRLSCAASGRIFGFYAMGWYRQAPGKERELVAAISSRGGRTYYADSVKGRFTISRDNAKNTVYLQMNSLKPEDTAVYYCAAGDGKYGRDGDYWGQGTQVTVSS | high polyreactivity |
| QVQLVESGGGLVQAGGSLRLSCAASGRIFGFYAMGWYRQAPGKERELVARITLSGGRTYYADSVKGRFTISRDNAKNTVYLQMNSLKPEDTAVYYCAADSIGRLWGYGYWGQGTQVTVSS | high polyreactivity |
| QVQLVESGGGLVQAGGSLRLSCAASGRIFGFYAMGWYRQAPGKERELVAVISNGGGSTYYADSVKGRFTISRDNAKNTVYLQMTSLKPEDTAVYYCAVALKYPRRYYYWGQGTQVTVSS | high polyreactivity |
| QVQLVESGGGLVQAGGSLRLSCAASGRIFGFYARGWYRQAPGKEREFVADITSGGSTNYADSVKGRFTISRDNAKNTVYLQMNSLKPEDTAVYYCNALSYVWYRYPGNWDEDDYWGQGTQVTVSS | low polyreactivity |
